Experimental data: IntAct's records for PubMed 31243363

B1: Phospholipid-transporting ATPase DRS2 (Saccharomyces cerevisiae), P39524 (parent)
chain: MNDDRETPPKRKPGEDDTLFDIDFLDDTTSHSGSRSKVTNSHANANYIPPSHVLPEETIDLDADDDNIENDVHENLFMSNNHDDQTSWNANRFDSDAYQPQSLRAVKPPGLFARFGNGLKNAFTFKRKKGPESFEMNHYNAVTNNELDDNYLDSRNKFNIKILFNRYILRKNVGDAEGNGEPRVIHINDSLANSSFGYSDNHISTTKYNFATFLPKFLFQEFSKYANLFFLCTSAIQQVPHVSPTNRYTTIGTLLVVLIVSAMKECIEDIKRANSDKELNNSTAEIFSEAHDDFVEKRWIDIRVGDIIRVKSEEPIPADTIILSSSEPEGLCYIETANLDGETNLKIKQSRVETAKFIDVKTLKNMNGKVVSEQPNSSLYTYEGTMTLNDRQIPLSPDQMILRGATLRNTAWIFGLVIFTGHETKLLRNATATPIKRTAVEKIINRQIIALFTVLIVLILISSIGNVIMSTADAKHLSYLYLEGTNKAGLFFKDFLTFWILFSNLVPISLFVTVELIKYYQAFMIGSDLDLYYEKTDTPTVVRTSSLVEELGQIEYIFSDKTGTLTRNIMEFKSCSIAGHCYIDKIPEDKTATVEDGIEVGYRKFDDLKKKLNDPSDEDSPIINDFLTLLATCHTVIPEFQSDGSIKYQAASPDEGALVQGGADLGYKFIIRKPNSVTVLLEETGEEKEYQLLNICEFNSTRKRMSAIFRFPDGSIKLFCKGADTVILERLDDEANQYVEATMRHLEDYASEGLRTLCLAMRDISEGEYEEWNSIYNEAATTLDNRAEKLDEAANLIEKNLILIGATAIEDKLQDGVPETIHTLQEAGIKIWVLTGDRQETAINIGMSCRLLSEDMNLLIINEETRDDTERNLLEKINALNEHQLSTHDMNTLALVIDGKSLGFALEPELEDYLLTVAKLCKAVICCRVSPLQKALVVKMVKRKSSSLLLAIGDGANDVSMIQAAHVGVGISGMEGMQAARSADIAVGQFKFLKKLLLVHGSWSYQRISVAILYSFYKNTALYMTQFWYVFANAFSGQSIMESWTMSFYNLFFTVWPPFVIGVFDQFVSSRLLERYPQLYKLGQKGQFFSVYIFWGWIINGFFHSAIVFIGTILIYRYGFALNMHGELADHWSWGVTVYTTSVIIVLGKAALVTNQWTKFTLIAIPGSLLFWLIFFPIYASIFPHANISREYYGVVKHTYGSGVFWLTLIVLPIFALVRDFLWKYYKRMYEPETYHVIQEMQKYNISDSRPHVQQFQNAIRKVRQVQRMKKQRGFAFSQAEEGGQEKIVRMYDTTQKRGKYGELQDASANPFNDNNGLGSNDFESAEPFIENPFADGNQNSNRFSSSRDDISFDI
partner: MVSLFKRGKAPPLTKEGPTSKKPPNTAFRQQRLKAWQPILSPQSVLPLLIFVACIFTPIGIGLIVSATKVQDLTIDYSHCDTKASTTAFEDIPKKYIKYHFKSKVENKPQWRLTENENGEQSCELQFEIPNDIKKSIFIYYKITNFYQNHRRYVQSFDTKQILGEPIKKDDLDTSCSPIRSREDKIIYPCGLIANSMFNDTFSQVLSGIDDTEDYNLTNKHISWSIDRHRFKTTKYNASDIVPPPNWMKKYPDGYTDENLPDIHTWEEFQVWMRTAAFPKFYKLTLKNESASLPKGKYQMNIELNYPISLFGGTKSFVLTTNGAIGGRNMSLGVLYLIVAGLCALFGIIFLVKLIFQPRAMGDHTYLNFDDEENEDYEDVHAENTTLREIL

Variants of: B1
Settings: with cdc50_yeast CDC50, P25656

Effect of a mutation on the interaction, with no effect:
Y1235F
Y1235A
H1236A
